In PMC4834876 (Journal of molecular biology, 2016):

Molecular target: F-actin (filamentous actin) from rabbit muscle (rabbit, UniProt P68135 1-377)
Experiment: co-sedimentation

Kd: ~7 µM
B1: EB1_(248), activated fragment of EB1 lacking the auto-inhibitory acidic tail (domain or fragment)
chain: MAVNVYSTSVTSDNLSRHDMLAWINESLQLNLTKIEQLCSGAAYCQFMDMLFPGSIALKKVKFQAKLEHEYIQNFKILQAGFKRMGVDKIIPVDKLVKGKFQDNFEFVQWFKKFFDANYDGKDYDPVAARQGQETAVAPSLVAPALNKPKKPLTSSSAAPQRPISTQRTAAAPKAGPGVVRKNPGVGNGDDEAAELMQQVNVLKLTVEDLEKERDFYFGKLRNIELICQENEGENDPVLQRIVDILYA
